Source: paper PMC5344670, “Cryo-EM structure of the ATP-sensitive potassium channel illuminates mechanisms of assembly and gating” (eLife, 2017)

Target: the molecule itself
Assay: cryo-EM structure; digitonin-solubilised KATP channel complex in the presence of 1 mM ATP and 1 µM glibenclamide; single-particle analysis with C4 symmetry imposed

B1: rat Kir6.2 (natural protein)
chain: MLSRKGIIPEEYVLTRLAEDPTEPRYRTRERRARFVSKKGNCNVAHKNIREQGRFLQDVFTTLVDLKWPHTLLIFTMSFLCSWLLFAMVWWLIAFAHGDLAPGEGTNVPCVTSIHSFSSAFLFSIEVQVTIGFGGRMVTEECPLAILILIVQNIVGLMINAIMLGCIFMKTAQAHRRAETLIFSKHAVITLRHGRLCFMLRVGDLRKSMIISATIHMQVVRKTTSPEGEVVPLHQVDIPMENGVGGNSIFLVAPLIIYHVIDSNSPLYDLAPSDLHHHQDLEIIVILEGVVETTGITTQARTSYLADEILWGQRFVPIVAEEDGRYSVDYSKFGNTVKVPTPLCTARQLDEDRSLLDALTLASSRGPLRKRSVAVAKAKPKFSISPDSLS
notes: Kir6.2, rat, inwardly rectifying K+ channel family; the final model holds residues 32-356; The eLife digest calls it the mouse form; results and methods say rat; source: INS-1 cells clone 832/13 (rat insulinoma), co-infected with recombinant adenoviruses; purified with f-SUR1 (digitonin, anti-FLAG M2 agarose, FLAG peptide elution, size exclusion chromatography)
stoichiometry N: 4
